Data from the supplement of paper PMC10567573.

B1: ZNF649 (parent)
chain: MTKAQESLTLEDVAVDFTWEEWQF

Variants of: B1
Experiment: protein stability index of a GFP-peptide fusion (GPS, HEK-293T) (PSI 1-6); higher = more stable
Details: c terminus: a fixed tail appended
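Also: lentivirally expressed fusions sorted by FACS into six bins by GFP to DsRed ratio, PSI derived from sequencing read proportions per bin multiplied by bin number.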

Point of comparison: MTKAQESLTLENVAVDFTWEEWQF [D12N], protein stability index 2.23. Against it:
- MTKAQESLILEDVAVDFTWEEWQF [T9I] — higher, 2.71
- MTKAQESLMLEDVAVDFTWEEWQF [T9M] — higher, 3.16
- MTKAQESLHLEDVAVDFTWEEWQF [T9H] — higher, 3.81
- MTKAQESLDLEDVAVDFTWEEWQF [T9D] — higher, 3.71
- MTKAQESLPLEDVAVDFTWEEWQF [T9P] — higher, 4.17
- MTKAQESLNLEDVAVDFTWEEWQF [T9N] — higher, 4.28
- MTKAQESLKLEDVAVDFTWEEWQF [T9K] — higher, 3.38
- MTKAQESLGLEDVAVDFTWEEWQF [T9G] — higher, 3.49
- MTKAQESLALEDVAVDFTWEEWQF [T9A] — higher, 3.37
- MTKAQESLVLEDVAVDFTWEEWQF [T9V] — higher, 3.16
- MTKAMESLTLEDVAVDFTWEEWQF [Q5M] — higher, 2.92
- MTKAHESLTLEDVAVDFTWEEWQF [Q5H] — higher, 3.2
- MTKAGESLTLEDVAVDFTWEEWQF [Q5G] — higher, 2.84
- MTKACESLTLEDVAVDFTWEEWQF [Q5C] — higher, 2.78
- MTKATESLTLEDVAVDFTWEEWQF [Q5T] — higher, 3.04
- MTKAIESLTLEDVAVDFTWEEWQF [Q5I] — higher, 3.02
- MTKAVESLTLEDVAVDFTWEEWQF [Q5V] — higher, 3.37
- MTKAPESLTLEDVAVDFTWEEWQF [Q5P] — higher, 3.04
- MTKAWESLTLEDVAVDFTWEEWQF [Q5W] — lower, 1.49
- MTKANESLTLEDVAVDFTWEEWQF [Q5N] — higher, 3.33
- MTKADESLTLEDVAVDFTWEEWQF [Q5D] — higher, 3.4
- MTKAKESLTLEDVAVDFTWEEWQF [Q5K] — higher, 2.83
- MTKASESLTLEDVAVDFTWEEWQF [Q5S] — higher, 3.96
- MTKAAESLTLEDVAVDFTWEEWQF [Q5A] — higher, 3.02
- MTKAYESLTLEDVAVDFTWEEWQF [Q5Y] — higher, 2.32
- MTKAEESLTLEDVAVDFTWEEWQF [Q5E] — higher, 3.35
- MTKARESLTLEDVAVDFTWEEWQF [Q5R] — higher, 2.46
- MTKALESLTLEDVAVDFTWEEWQF [Q5L] — higher, 2.97
- MTKAFESLTLEDVAVDFTWEEWQF [Q5F] — higher, 3.12
- MTKAQESLTMEDVAVDFTWEEWQF [L10M] — higher, 3.44
- MTKAQESLTPEDVAVDFTWEEWQF [L10P] — higher, 4.11
- MTKAQESLTWEDVAVDFTWEEWQF [L10W] — higher, 3.19
- MTKAQESLTVEDVAVDFTWEEWQF [L10V] — higher, 3.01
- MTKAQESLTAEDVAVDFTWEEWQF [L10A] — higher, 3.8
- MTKAQESLTREDVAVDFTWEEWQF [L10R] — higher, 3.88
- MTKAQESLTEEDVAVDFTWEEWQF [L10E] — higher, 4.38
- MTKAQESLTDEDVAVDFTWEEWQF [L10D] — higher, 4.91
- MTKAQESLTQEDVAVDFTWEEWQF [L10Q] — higher, 4.13
- MTKAQESLTSEDVAVDFTWEEWQF [L10S] — higher, 4.07
- MTKAQESLTFEDVAVDFTWEEWQF [L10F] — higher, 3.61
- MTKAQESLTKEDVAVDFTWEEWQF [L10K] — higher, 4.34
- MTKAQESLTIEDVAVDFTWEEWQF [L10I] — higher, 2.81
- MTKAQESLTGEDVAVDFTWEEWQF [L10G] — higher, 4.14
- MTKAQESLTNEDVAVDFTWEEWQF [L10N] — higher, 4.29
- MTKAQESLTHEDVAVDFTWEEWQF [L10H] — higher, 4.42
- MTKAQESLTTEDVAVDFTWEEWQF [L10T] — higher, 4.05
- MTKAQESLTYEDVAVDFTWEEWQF [L10Y] — higher, 3.24
- MTKAQESLTCEDVAVDFTWEEWQF [L10C] — higher, 4.05
- MTKAQKSLTLEDVAVDFTWEEWQF [E6K] — higher, 3.02
- MTKAQYSLTLEDVAVDFTWEEWQF [E6Y] — lower, 1.53
- MTKAQGSLTLEDVAVDFTWEEWQF [E6G] — higher, 2.74
- MTKAQPSLTLEDVAVDFTWEEWQF [E6P] — higher, 2.78
- MTKAQNSLTLEDVAVDFTWEEWQF [E6N] — higher, 2.88
- MTKAQFSLTLEDVAVDFTWEEWQF [E6F] — lower, 1.89
- MTKAQISLTLEDVAVDFTWEEWQF [E6I] — higher, 4.31
- MTKAQCSLTLEDVAVDFTWEEWQF [E6C] — higher, 2.52
- MTKAQTSLTLEDVAVDFTWEEWQF [E6T] — higher, 2.71
- MTKAQHSLTLEDVAVDFTWEEWQF [E6H] — lower, 2.2
- MTKAQVSLTLEDVAVDFTWEEWQF [E6V] — lower, 1.75
- MTKAQRSLTLEDVAVDFTWEEWQF [E6R] — higher, 2.88
- MTKAQSSLTLEDVAVDFTWEEWQF [E6S] — higher, 2.33
- MTKAQMSLTLEDVAVDFTWEEWQF [E6M] — lower, 1.92
- MTKAQQSLTLEDVAVDFTWEEWQF [E6Q] — higher, 2.94
- MTKAQLSLTLEDVAVDFTWEEWQF [E6L] — higher, 2.43
- MTKAQASLTLEDVAVDFTWEEWQF [E6A] — lower, 1.87
- MTKAQDSLTLEDVAVDFTWEEWQF [E6D] — higher, 3.14
- MTKAQWSLTLEDVAVDFTWEEWQF [E6W] — lower, 1.95
- MTKAQESLTLEDCAVDFTWEEWQF [V13C] — higher, 3.37
- MTKAQESLTLEDFAVDFTWEEWQF [V13F] — higher, 2.54
- MTKAQESLTLEDHAVDFTWEEWQF [V13H] — higher, 3.88
- MTKAQESLTLEDIAVDFTWEEWQF [V13I] — higher, 3.47
- MTKAQESLTLEDGAVDFTWEEWQF [V13G] — higher, 3.64
- MTKAQESLTLEDAAVDFTWEEWQF [V13A] — higher, 3.98
- MTKAQESLTLEDDAVDFTWEEWQF [V13D] — higher, 4.11
- MTKAQESLTLEDEAVDFTWEEWQF [V13E] — higher, 4.25
- MTKAQESLTLEDKAVDFTWEEWQF [V13K] — higher, 4.16
- MTKAQESLTLEYVAVDFTWEEWQF [D12Y] — higher, 4.33
- MTKAQESLTLESVAVDFTWEEWQF [D12S] — lower, 2.13
- MTKAQESLTLEMVAVDFTWEEWQF [D12M] — lower, 2.14
- MTKAQESLTLEVVAVDFTWEEWQF [D12V] — lower, 1.92
- MTKAQESLTLELVAVDFTWEEWQF [D12L] — higher, 3.49
- MTKAQESLTLECVAVDFTWEEWQF [D12C] — higher, 2.65
- MTKAQESLTLEHVAVDFTWEEWQF [D12H] — higher, 2.68
- MTKAQESLTLETVAVDFTWEEWQF [D12T] — lower, 2.2
- MTKAQESLTLEEVAVDFTWEEWQF [D12E] — higher, 3.23
- MTKAQESLTLEFVAVDFTWEEWQF [D12F] — higher, 3.77
- MTKAQESLTLEAVAVDFTWEEWQF [D12A] — lower, 1.72
- MTKAQESLTLEQVAVDFTWEEWQF [D12Q] — higher, 2.84
- MTKAQESLTLEPVAVDFTWEEWQF [D12P] — higher, 3.05
- MTKAQESLTLEIVAVDFTWEEWQF [D12I] — higher, 2.95
- MTKAQESLTLERVAVDFTWEEWQF [D12R] — higher, 2.85
- MTKAQESLTLEKVAVDFTWEEWQF [D12K] — higher, 2.7
- MTKAQESLTLEGVAVDFTWEEWQF [D12G] — higher, 2.55
